Experimental data published in paper PMC4132754 (Nucleic Acids Research, 2014).

B1: SBP-UPF1 WT (natural protein)
chain: MSVEAYGPSSQTLTFLDTEEAELLGADTQGSEFEFTDFTLPSQTQTPPGGPGGPGGGGAGGPGGAGAGAAAGQLDAQVGPEGILQNGAVDDSVAKTSQLLAELNFEEDEEDTYYTKDLPIHACSYCGIHDPACVVYCNTSKKWFCNGRGNTSGSHIVNHLVRAKCKEVTLHKDGPLGETVLECYNCGCRNVFLLGFIPAKADSVVVLLCRQPCASQSSLKDINWDSSQWQPLIQDRCFLSWLVKIPSEQEQLRARQITAQQINKLEELWKENPSATLEDLEKPGVDEEPQHVLLRYEDAYQYQNIFGPLVKLEADYDKKLKESQTQDNITVRWDLGLNKKRIAYFTLPKTDSDMRLMQGDEICLRYKGDLAPLWKGIGHVIKVPDNYGDEIAIELRSSVGAPVEVTHNFQVDFVWKSTSFDRMQSALKTFAVDETSVSGYIYHKLLGHEVEDVIIKCQLPKRFTAQGLPDLNHSQVYAVKTVLQRPLSLIQGPPGTGKTVTSATIVYHLARQGNGPVLVCAPSNIAVDQLTEKIHQTGLKVVRLCAKSREAIDSPVSFLALHNQIRNMDSMPELQKLQQLKDETGELSSADEKRYRALKRTAERELLMNADVICCTCVGAGDPRLAKMQFRSILIDESTQATEPECMVPVVLGAKQLILVGDHCQLGPVVMCKKAAKAGLSQSLFERLVVLGIRPIRLQVQYRMHPALSAFPSNIFYEGSLQNGVTAADRVKKGFDFQWPQPDKPMFFYVTQGQEEIASSGTSYLNRTEAANVEKITTKLLKAGAKPDQIGIITPYEGQRSYLVQYMQFSGSLHTKLYQEVEIASVDAFQGREKDFIILSCVRANEHQGIGFLNDPRRLNVALTRARYGVIIVGNPKALSKQPLWNHLLNYYKEQKVLVEGPLNNLRESLMQFSKPRKLVNTINPGARFMTTAMYDAREAIIPGSVYDRSSQGRPSSMYFQTHDQIGMISAGPSHVAAMNIPIPFNLVMPPMPPPGYFGQANGPAAGRGTPKGKTGRGGRQKNRFGLPGPSQTNLPNSQASQDVASQPFSQGALTQGYISMSQPSQMSQPGLSQPELSQDSYLGDEFKSQIDVALSQDSTYQGERAYQHGGVTGLSQY
B2: SBP-UPF1 Δ1C (natural protein)
chain: MSVEAYGPSSQTLTFLDTEEAELLGADTQGSEFEFTDFTLPSQTQTPPGGPGGPGGGGAGGPGGAGAGAAAGQLDAQVGPEGILQNGAVDDSVAKTSQLLAELNFEEDEEDTYYTKDLPIHACSYCGIHDPACVVYCNTSKKWFCNGRGNTSGSHIVNHLVRAKCKEVTLHKDGPLGETVLECYNCGCRNVFLLGFIPAKADSVVVLLCRQPCASQSSLKDINWDSSQWQPLIQDRCFLSWLVKIPSEQEQLRARQITAQQINKLEELWKENPSATLEDLEKPGVDEEPQHVLLRYEDAYQYQNIFGPLVKLEADYDKKLKESQTQDNITVRWDLGLNKKRIAYFTLPKTDSDMRLMQGDEICLRYKGDLAPLWKGIGHVIKVPDNYGDEIAIELRSSVGAPVEVTHNFQVDFVWKSTSFDRMQSALKTFAVDETSVSGYIYHKLLGHEVEDVIIKCQLPKRFTAQGLPDLNHSQVYAVKTVLQRPLSLIQGPPGTGKTVTSATIVYHLARQGNGPVLVCAPSNIAVDQLTEKIHQTGLKVVRLCAKSREAIDSPVSFLANADVICCTCVGAGDPRLAKMQFRSILIDESTQATEPECMVPVVLGAKQLILVGDHCQLGPVVMCKKAAKAGLSQSLFERLVVLGIRPIRLQVQYRMHPALSAFPSNIFYEGSLQNGVTAADRVKKGFDFQWPQPDKPMFFYVTQGQEEIASSGTSYLNRTEAANVEKITTKLLKAGAKPDQIGIITPYEGQRSYLVQYMQFSGSLHTKLYQEVEIASVDAFQGREKDFIILSCVRANEHQGIGFLNDPRRLNVALTRARYGVIIVGNPKALSKQPLWNHLLNYYKEQKVLVEGPLNNLRESLMQFSKPRKLVNTINPGARFMTTAMYDAREAIIPGSVYDRSSQGRPSSMYFQTHDQIGMISAGPSHVAAMNIPIPFNLVMPPMPPPGYFGQANGPAAGRGTPKGKTGRGGRQKNRFGLPGPSQTNLPNSQASQDVASQPFSQGALTQGYISMSQPSQMSQPGLSQPELSQDSYLGDEFKSQIDVALSQDSTYQGERAYQHGGVTGLSQY
B3: SBP-UPF1 ΔStalkΔSQ1 (domain or fragment)
chain: MSVEAYGPSSQTLTFLDTEEAELLGADTQGSEFEFTDFTLPSQTQTPPGGPGGPGGGGAGGPGGAGAGAAAGQLDAQVGPEGILQNGAVDDSVAKTSQLLAELNFEEDEEDTYYTKDLPIHACSYCGIHDPACVVYCNTSKKWFCNGRGNTSGSHIVNHLVRAKCKEVTLHKDGPLGETVLECYNCGCRNVFLLGFIPAKADSVVVLLCRQPCASQSSLKDINWDSSQWQPLIQDRCFLSWLVKIPSEQEQLRARQITAQQINKLEELWKETSVSGYIYHKLLGHEVEDVIIKCQLPKRFTAQGLPDLNHSQVYAVKTVLQRPLSLIQGPPGTGKTVTSATIVYHLARQGNGPVLVCAPSNIAVDQLTEKIHQTGLKVVRLCAKSREAIDSPVSFLALHNQIRNMDSMPELQKLQQLKDETGELSSADEKRYRALKRTAERELLMNADVICCTCVGAGDPRLAKMQFRSILIDESTQATEPECMVPVVLGAKQLILVGDHCQLGPVVMCKKAAKAGLSQSLFERLVVLGIRPIRLQVQYRMHPALSAFPSNIFYEGSLQNGVTAADRVKKGFDFQWPQPDKPMFFYVTQGQEEIASSGTSYLNRTEAANVEKITTKLLKAGAKPDQIGIITPYEGQRSYLVQYMQFSGSLHTKLYQEVEIASVDAFQGREKDFIILSCVRANEHQGIGFLNDPRRLNVALTRARYGVIIVGNPKALSKQPLWNHLLNYYKEQKVLVEGPLNNLRESLMQFSKPRKLVNTINPGARFMTTAMYDAREAIIPGSVYDRSSQGRPSSMYFQTHDQIGMISAGPSHVAAMNIPIPFNLVMPPMPPPGYFGQANGPAAGRGTPKGKTGRGG

Target: Flag-HA-SBP-SMG6 (human, UniProt Q86US8 1-1419)
Test: pull-down

Chain of Flag-HA-SBP-SMG6 (Q86US8 whole entry): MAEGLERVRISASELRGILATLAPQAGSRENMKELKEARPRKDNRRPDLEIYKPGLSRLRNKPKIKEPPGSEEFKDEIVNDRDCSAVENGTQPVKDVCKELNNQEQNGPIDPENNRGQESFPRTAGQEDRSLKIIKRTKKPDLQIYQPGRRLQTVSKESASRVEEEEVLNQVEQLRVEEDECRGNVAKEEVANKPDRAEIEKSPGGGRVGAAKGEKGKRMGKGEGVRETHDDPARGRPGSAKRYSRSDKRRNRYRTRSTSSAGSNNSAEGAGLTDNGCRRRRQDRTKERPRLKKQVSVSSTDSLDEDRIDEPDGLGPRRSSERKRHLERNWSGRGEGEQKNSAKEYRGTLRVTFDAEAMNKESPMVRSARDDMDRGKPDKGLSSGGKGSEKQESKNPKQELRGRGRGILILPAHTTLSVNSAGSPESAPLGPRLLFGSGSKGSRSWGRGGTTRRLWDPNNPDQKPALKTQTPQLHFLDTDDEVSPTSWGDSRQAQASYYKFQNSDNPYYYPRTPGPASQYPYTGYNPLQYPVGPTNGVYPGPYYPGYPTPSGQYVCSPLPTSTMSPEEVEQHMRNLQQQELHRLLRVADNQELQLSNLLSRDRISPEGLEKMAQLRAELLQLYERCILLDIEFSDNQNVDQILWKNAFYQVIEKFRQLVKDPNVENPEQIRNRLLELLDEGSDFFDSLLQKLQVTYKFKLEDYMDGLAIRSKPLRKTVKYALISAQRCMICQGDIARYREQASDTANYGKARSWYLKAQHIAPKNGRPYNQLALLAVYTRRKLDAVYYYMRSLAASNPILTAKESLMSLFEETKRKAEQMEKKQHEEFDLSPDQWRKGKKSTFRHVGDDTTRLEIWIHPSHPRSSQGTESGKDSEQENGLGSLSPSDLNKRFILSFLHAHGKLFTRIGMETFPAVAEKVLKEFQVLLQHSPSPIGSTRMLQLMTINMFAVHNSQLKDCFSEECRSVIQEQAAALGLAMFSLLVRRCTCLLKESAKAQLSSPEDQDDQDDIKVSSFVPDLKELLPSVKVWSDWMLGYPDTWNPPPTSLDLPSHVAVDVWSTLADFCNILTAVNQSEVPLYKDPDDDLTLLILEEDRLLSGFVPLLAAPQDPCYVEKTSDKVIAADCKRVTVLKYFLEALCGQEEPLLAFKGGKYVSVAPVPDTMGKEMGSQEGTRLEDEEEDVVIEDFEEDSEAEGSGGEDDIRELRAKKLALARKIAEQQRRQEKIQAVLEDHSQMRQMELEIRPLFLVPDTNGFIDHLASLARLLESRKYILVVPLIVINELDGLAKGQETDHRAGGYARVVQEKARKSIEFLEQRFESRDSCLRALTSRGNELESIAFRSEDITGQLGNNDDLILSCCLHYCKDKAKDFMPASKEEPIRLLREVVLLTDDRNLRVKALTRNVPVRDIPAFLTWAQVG

Binding result, binds:
B1
B2
B3
